# Data reported in paper PMC6457126 (Proteins, 2018).
# No end group written: not given here.
# How the values were obtained:
# [1] = target: histone H4K5ac (Homo sapiens) (UniProt P62805); assay: ITC; conditions: cited from earlier work
# [2] = target: T1, ATAD2 CO C1057A/C1079A/C1101A bromodomain (triple cysteine mutant) (human, UniProt Q6PL18 981-1108, C1057A | C1079A | C1101A); assay: ITC
# T1 sequence: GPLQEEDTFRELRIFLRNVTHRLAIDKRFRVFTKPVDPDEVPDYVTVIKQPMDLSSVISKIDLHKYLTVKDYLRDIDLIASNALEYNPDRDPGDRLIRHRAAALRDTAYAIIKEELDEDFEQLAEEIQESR
Molecule,Kd [1] [µM],Kd [2] [µM],dH [2] [kcal/mol],stoichiometry N [2]
ATAD2 bromodomain (from UniProt Q6PL18),22,–,–,–
SGRGK(Ac)GGKGL [histone H4K5ac peptide (residues 1-10)],–,113,-4.2,0.84
